Measurements published in US10689452 (UNIVERSIT T STUTTGART, dated 2020).

What was measured:
[1] = molecular target: T1, human TNFR1 on cells (HT1080, HeLa, Kym-1) (human, UniProt P19438 30-455); assay: cell-based or functional assay
T1 sequence (looked up): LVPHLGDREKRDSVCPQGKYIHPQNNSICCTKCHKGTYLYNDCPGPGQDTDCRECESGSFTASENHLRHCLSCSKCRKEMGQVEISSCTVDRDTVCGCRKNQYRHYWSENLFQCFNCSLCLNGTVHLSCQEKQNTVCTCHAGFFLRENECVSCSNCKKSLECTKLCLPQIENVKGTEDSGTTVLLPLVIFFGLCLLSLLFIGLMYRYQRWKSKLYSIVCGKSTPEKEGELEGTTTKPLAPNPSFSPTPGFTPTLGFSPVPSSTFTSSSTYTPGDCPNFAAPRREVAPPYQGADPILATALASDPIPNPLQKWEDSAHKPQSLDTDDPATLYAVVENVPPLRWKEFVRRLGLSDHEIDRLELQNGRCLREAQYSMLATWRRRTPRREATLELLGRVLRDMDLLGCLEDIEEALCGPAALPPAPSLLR

[2] = molecular target: T2, human TNFR1-Fc fusion protein (human, UniProt P19438 29-211); assay: ELISA, immobilised human TNFR1-Fc
T2 construct: range 29-211; Made in stably transfected HEK293 cells; coated on ELISA plates or immobilised on QCM chips; also called huTNFR1-Fc; human TNFR-Fc; not shown: Fc part from vector pSecTagL1-Fc
T2 sequence (looked up): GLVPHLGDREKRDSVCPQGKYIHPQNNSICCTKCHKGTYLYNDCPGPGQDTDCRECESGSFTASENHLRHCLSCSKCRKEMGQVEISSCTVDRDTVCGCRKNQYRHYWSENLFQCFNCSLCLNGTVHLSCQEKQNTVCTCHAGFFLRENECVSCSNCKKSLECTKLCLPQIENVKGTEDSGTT

[3] = molecular target: T1, human TNFR1 on cells (HT1080, HeLa, …); assay: cell-based or functional assay; remark: listed apart in the source

B1: Fv13.7-Fckih0DS (Fc fusion)
chain 1: HVQLVQSGAEVKKPGSSVKVSCKASGYTFTDFYINWVRQAPGQGLEWIGEIVPSQGEAKYNDKFKARVTITADKSTSTAYMELSSLRSEDTAVYYCARWDFLDYWGQGTTVTVSSGTDKTHTSPPSPAPPVAGPSVFLFPPKPKDTLMISRTPEVTCVVVDVSHEDPEVKFNWYVDGVEVHNAKTKPREEQYNSTYRVVSVLTVLHQDWLNGKEYKCKVSNKGLPSSIEKTISKAKGQPREPQVYTLPPSRDELTKNQVSLSCAVKGFYPSDIAVEWESNGQPENNYKTTPPVLDSDGSFFLVSKLTVDKSRWQQGNVFSCSVMHEALHNHYTQKSLSLSPGK
chain 2: DVQMTQSPSSLSASVGDRVTITCRSSQSLLHSNGNTYLHWYQQKPGKAPKLLIYTVSNRFSGVPSRFSGSGSGTDFTLTISSLQPEDFATYYCSQSTHVPYTFGGGTKVEIKGTDKTHTSPPSPAPPVAGPSVFLFPPKPKDTLMISRTPEVTCVVVDVSHEDPEVKFNWYVDGVEVHNAKTKPREEQYNSTYRVVSVLTVLHQDWLNGKEYKCKVSNKGLPSSIEKTISKAKGQPREPQVYTLPPSRDELTKNQVSLWCLVKGFYPSDIAVEWESNGQPENNYKTTPPVLDSDGSFFLYSKLTVDKSRWQQGNVFSCSVMHEALHNHYTQKSLSLSPGK
notes: also called monovalent Fv13.7-Fc fusion protein
In the case of B1, the “IL-8 Inhibition IC50 [nM] (HT1080 cells, 0.1 nM soluble TNF)” value [1] is reported as 30.7 nM and the EC50 [2] is reported as 0.3 nM.

B2: Fab13.7-Fckih0DS (Fc fusion)
chain 1: HVQLVQSGAEVKKPGSSVKVSCKASGYTFTDFYINWVRQAPGQGLEWIGEIVPSQGEAKYNDKFKARVTITADKSTSTAYMELSSLRSEDTAVYYCARWDFLDYWGQGTTVTVSSASTKGPSVFPLAPSSKSTSGGTAALGCLVKDYFPEPVTVSWNSGALTSGVHTFPAVLQSSGLYSLSSVVTVPSSSLGTQTYICNVNHKPSNTKVDKKVEPKSCGTDKTHTSPPSPAPPVAGPSVFLFPPKPKDTLMISRTPEVTCVVVDVSHEDPEVKFNWYVDGVEVHNAKTKPREEQYNSTYRVVSVLTVLHQDWLNGKEYKCKVSNKGLPSSIEKTISKAKGQPREPQVYTLPPSRDELTKNQVSLSCAVKGFYPSDIAVEWESNGQPENNYKTTPPVLDSDGSFFLVSKLTVDKSRWQQGNVFSCSVMHEALHNHYTQKSLSLSPGK
chain 2: DVQMTQSPSSLSASVGDRVTITCRSSQSLLHSNGNTYLHWYQQKPGKAPKLLIYTVSNRFSGVPSRFSGSGSGTDFTLTISSLQPEDFATYYCSQSTHVPYTFGGGTKVEIKRTVAAPSVFIFPPSDEQLKSGTASVVCLLNNFYPREAKVQWKVDNALQSGNSQESVTEQDSKDSTYSLSSTLTLSKADYEKHKVYACEVTHQGLSSPVTKSFNRGECGTDKTHTSPPSPAPPVAGPSVFLFPPKPKDTLMISRTPEVTCVVVDVSHEDPEVKFNWYVDGVEVHNAKTKPREEQYNSTYRVVSVLTVLHQDWLNGKEYKCKVSNKGLPSSIEKTISKAKGQPREPQVYTLPPSRDELTKNQVSLWCLVKGFYPSDIAVEWESNGQPENNYKTTPPVLDSDGSFFLYSKLTVDKSRWQQGNVFSCSVMHEALHNHYTQKSLSLSPGK
notes: knobs-into-holes heterodimer, FcgammaR-silenced, no hinge disulfides; also called monovalent Fab13.7-Fc fusion protein
In the case of B2, the “fold higher IC50 (IL-8 release inhibition) compared to Fab13.7” value [3] is reported as 2.3 fold, the “IL-8 Inhibition IC50 [nM] (HT1080 cells, 0.1 nM soluble TNF)” value [1] is reported as 61.2 nM and the EC50 [2] is reported as 0.5 nM.
